Results on one molecule are retold here after article PMC5342150, “PRMT5 competitively binds to CDK4 to promote G1-S transition upon glucose induction in hepatocellular carcinoma” (Oncotarget, 2016).

One test has as its target T1, 6× His-tagged PRMT5 (human, UniProt O14744 1-637).
T1 construct: protein arginine methyltransferase 5 (PRMT5), human; also called His-PRMT5
Put plainly: pull-down; binding reaction (500 μl) with 100 μl purified His-p16^INK4a (or His-PRMT5) and increasing amounts (50, 100, 200, 400 μl) of purified His-PRMT5 (or His-p16^INK4a) incubated with GST-fused CDK4 1-70 aa; Western blot. The conditions noted are these: both partners purified.

The next test has as its target T2, 6× His-tagged p16^INK4a (human, UniProt P42771 1-156).
T2 construct: p16^INK4a, the major isoform of CDKN2A, human; also called His-p16^INK4a; CDKN2A
T2 sequence (looked up): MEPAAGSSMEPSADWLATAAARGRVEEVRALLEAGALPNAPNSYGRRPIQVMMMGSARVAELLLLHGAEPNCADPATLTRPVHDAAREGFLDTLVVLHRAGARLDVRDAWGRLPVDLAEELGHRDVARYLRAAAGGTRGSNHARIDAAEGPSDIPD
The test is described as above. Particulars: both partners purified.

T1 sequence (O14744 whole entry): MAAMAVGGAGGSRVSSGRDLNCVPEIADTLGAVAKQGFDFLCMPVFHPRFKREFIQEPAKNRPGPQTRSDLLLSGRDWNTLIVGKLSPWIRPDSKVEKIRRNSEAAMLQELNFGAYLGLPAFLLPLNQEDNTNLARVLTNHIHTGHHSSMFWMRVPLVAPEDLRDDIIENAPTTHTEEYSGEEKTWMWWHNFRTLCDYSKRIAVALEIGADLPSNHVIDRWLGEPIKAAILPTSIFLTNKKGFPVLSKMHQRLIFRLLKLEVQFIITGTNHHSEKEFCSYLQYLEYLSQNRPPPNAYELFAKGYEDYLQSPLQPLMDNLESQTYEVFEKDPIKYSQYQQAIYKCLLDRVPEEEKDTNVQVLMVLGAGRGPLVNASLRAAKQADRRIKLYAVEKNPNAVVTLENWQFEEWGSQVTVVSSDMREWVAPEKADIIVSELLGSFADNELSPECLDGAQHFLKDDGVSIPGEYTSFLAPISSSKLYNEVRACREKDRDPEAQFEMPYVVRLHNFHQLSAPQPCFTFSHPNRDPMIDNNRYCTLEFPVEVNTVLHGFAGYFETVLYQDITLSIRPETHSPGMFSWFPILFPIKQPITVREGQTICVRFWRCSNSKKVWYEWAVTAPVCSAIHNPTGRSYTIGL

B1: GST-fused CDK4 1-70 aa (domain or fragment, human, UniProt P11802-1 1-70, looked up)
chain: MATSRYEPVAEIGVGAYGTVYKARDPHSGHFVALKSVRVPNGGGGGGGLPISTVREVALLRRLEAFEHPN
notes: cyclin dependent kinase 4 (CDK4), human, amino acids 1-70 of NP_000066; also called GST-CDK4 fragment 1-70; source: E. coli BL21, purified (glutathione-Sepharose 4B beads)
In the case of B1, the binding result with 6× His-tagged PRMT5 and in the test with 6× His-tagged p16^INK4a was “binds” in each case.
